Measurements from patent US20090291083A1, “BARB4 TARGET, ANTIBODY DESIGNATED BARB4, BARB4 RELATED ANTIBODIES, AND METHODS OF MAKING AND USING SAME” (PATRYS LIMITED, priority 2008, published 2009).

Test system: BXPC-3 cells transfected with TAF 15 siRNA
Experiment: FACS analysis after TAF 15 siRNA knockdown
Format: binding, human
Details: BARB4 300 μg/ml
Procedure: Before transfection, 24-well plates were inoculated with 0.5×10^4 BXPC-3 cells in growth medium (RPMI 1640 supplemented with […] and 1% (V/V) glutamine). The cells were incubated at 37° C. and a 7% CO2 atmosphere over night to reach a confluence of 50 to 70% the following day. 60 minutes prior to transfection, the medium was carefully aspirated from the wells and 250 μl (300 μl for nontransfected cells) fresh growth medium was added. For each well 50 μl transfection solution was prepared. First […] serum-free OptiMEM® I+GlutaMAX™-I (1×) medium (Invitrogen, Karlsruhe) supplemented with 0.5 μl siLentFect™Lipid Reagent (Biorad, München) was mixed. Afterwards 25 μl serum-free medium containing siGENOME SMARTpool siRNA (Dharmacon, Lafayette, USA) was prepared to achieve a final concentration of 100 nM siRNA. Both solutions were prepared separately. After five minutes they were added together and mixed by pipetting. […]
FACS assays were done with transfected cells. […] At least 200 μl FACS buffer was added and cells were analyzed by flow cytometry (FACScan; Becton Dickinson, San Jose, Calif.) using WinMDI software. […]
Mouse anti-human CD55 antibody (DAF; 1:1000; Acris, Hiddenhausen) was used to control protein expression of other cell surface membrane proteins. […] The cells were analyzed by flow cytometry (FACScan, Becton Dickinson, San Jose) and evaluated with WinMDI software.

B1: BARB4: human IgG antibody produced by hybridoma DSMZ Deposit No. DSM ACC2876; heavy chain SEQ ID NOs:1, 3, 5, 7, light chain SEQ ID NO:9 (antibody, V domains shown)
VH: QVQLVESGGGVVQPGRSLRLSCAASGFRFTTHGMHWVRQAPGKGLEWVAVISYNGRNKYYADYVNGRFTISRDDSRDTVFLQMNSLRPEDTAMYYCAKVRGDGYGDYGYFDYWGHGTLVSVSS
VL: QSALTQPRSVSGSPGQSVTISCTGTYNYVSWYQQHPGKAPKLMIFDVSRRSSGVPDRFSGSKSGNTASLTISGLQAEDEADYYCCSYGGTYLYVFGTGTTVTVLGQ
- FACS binding to cells treated with siRNA against human TAF15 mRNA (48 h after transfection): clearly reduced binding
- FACS binding to untreated cells and cells treated with unrelated siRNA (negative control) (after 48 h): binds
